Measured values reported in IntAct's records for PubMed 15890343.

Molecular target: otx2_mouse Otx2 (UniProt P80206)
Sequence (P80206 whole entry): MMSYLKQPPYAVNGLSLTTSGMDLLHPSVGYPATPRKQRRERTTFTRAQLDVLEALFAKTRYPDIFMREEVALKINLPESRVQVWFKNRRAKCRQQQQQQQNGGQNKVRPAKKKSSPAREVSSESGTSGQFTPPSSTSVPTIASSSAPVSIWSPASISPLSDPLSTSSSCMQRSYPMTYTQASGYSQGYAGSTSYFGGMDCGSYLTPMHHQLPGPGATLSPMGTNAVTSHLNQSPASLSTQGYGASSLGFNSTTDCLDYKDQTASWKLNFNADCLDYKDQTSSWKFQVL

Diencephalon/mesencephalon homeobox protein 1 (Mus musculus), Q91ZK4 R122W, sequence (Q91ZK4 whole entry R122W): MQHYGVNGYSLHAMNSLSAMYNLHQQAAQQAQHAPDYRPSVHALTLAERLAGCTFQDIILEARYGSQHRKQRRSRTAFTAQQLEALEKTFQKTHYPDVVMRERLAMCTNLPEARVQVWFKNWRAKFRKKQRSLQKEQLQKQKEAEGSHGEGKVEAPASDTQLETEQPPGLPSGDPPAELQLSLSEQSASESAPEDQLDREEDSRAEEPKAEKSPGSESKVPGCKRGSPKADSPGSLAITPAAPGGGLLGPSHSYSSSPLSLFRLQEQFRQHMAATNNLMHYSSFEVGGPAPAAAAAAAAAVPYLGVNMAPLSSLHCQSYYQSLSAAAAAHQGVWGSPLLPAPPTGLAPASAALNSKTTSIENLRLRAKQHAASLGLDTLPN

## Diencephalon/mesencephalon homeobox protein 1 (Mus musculus), Q91ZK4 R122W
  effect of a mutation on the interaction: disrupting interaction
